US20100040577

System: human recombinant CXCL10 (1-77)
Sequence (chain, as listed by the source): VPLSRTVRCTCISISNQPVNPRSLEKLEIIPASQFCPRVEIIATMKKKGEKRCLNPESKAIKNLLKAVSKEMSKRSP

Substance | cleavage of CXCL10 (SELDI-TOF mass analysis) | molecular weight difference after in vitro digestion (SELDI-TOF mass spectrometry)
active MMP2 | MMP2 did not alter the mass of CXCL10 | 
active MMP9 | MMP9 cleaved 9 amino acids from CXCL10 | 
recombinant DPP4 |  | The molecular weight difference (red number) between CXCL10 (1-77) and CXCL10 (3-77) is 0.2 KDa, corresponding to a 2 amino-acid difference
